How the values were obtained:
yeast cells [1] = assay: Yeast growth (turbidity A600) in the presence of CBD; type: cell-based, Saccharomyces cerevisiae (strain Y1HGold); settings: 0.5 mM CBD, 7-12 hours, FIG. 2
Procedure: (§1) The genes were expressed in yeast and tobacco. For yeast, the ABC and PTR Transporter genes were synthesized by the TWIST Co, cloned and expressed (individually) in the yeast expression vector pESC-URA (Agilent Technologies) for expression under the yeast native gal-10 promoter. Competent Saccharomyces cerevisiae (strain Y1HGold, CloneTech) cells were prepared, transformed by each of the resulting vector and selected on yeast synthetic media lacking Uracil as previously described [GietzR. D., Methods Mol. Biol. (2014) 1205:1-12].
An alternative method is to measure the yeast growth as a function of turbidity. Transformed yeast cells were grown on URA-glucose broth at 30° C. at 200 RPM, and after 24 hours 100 μl was used to inoculate 5 ml of URA-galactose broth in the same conditions till O.D.600 of 1.5. The yeast was further diluted to OD600=0.05 with 10 ml URA-galactose, and divided into two 5 ml aliquots into separate 50 ml falcon tubes. The first falcon (control) was added 78 μl acetonitrile (the solvent that the CBD was dissolved in), and the second one was added 78 μl CBD solution in acetonitrile (final CBD concentration=0.5 mM). […]

yeast cells [2] = assay: Uptake of CBD into yeast cells; type: cell-based, Saccharomyces cerevisiae (strain Y1HGold); settings: 0.5 mM CBD, three hour incubation, FIG. 3A and FIG. 4
Procedure: as §1
An additional strategy for determining transporter function is to measure the amount of exogenous CBD taken up and incorporated into the cells.
Transformed yeast cells were grown on URA-glucose broth at 30° C. at 200 RPM, and after 24 hours 100 μl was used to inoculate 5 ml of URA-galactose broth in the same conditions till OD600 of […]. The yeast was incubated with 0.5 mM CBD for 2-8 hours in 30° C. at 100 RPM, then centrifuged at 15000 g for 1 minute, and washed twice with 1 ml distilled water. The pellet was weighed and underwent HPLC analysis to determine the pellet's CBD content. The pellet was extracted in 1 ml methanol, and following centrifugation and filter was analyzed by HPLC using a diode-array detector and CBD was quantified against a commercial standard.

[3] = Terpene synthase activity assay with GPP; type: biochemical; settings: TPS expressed in E. coli; 10 μM GPP, overnight at 30° C., SPME GC-MS
Procedure: Putative terpene synthase genes were synthesized by the TWIST Co., and cloned into Novagen pET-28a(+) with a 6×His tag at its' N-terminus. The recombinant plasmid was then sequenced for authentication and transformed into BL21(DE3) pLysS and pLysE strains of E. coli (Agilent Technologies) for heterologous expression. An overnight culture was used to inoculate a 20-200 mL culture, induced with 0.1 mM IPTG at an OD 600 nm >0,8 for initiation of recombinant protein translation then incubated at 18° C. and 250 RPM overnight. The cells were collected by centrifugation and the recombinant enzymes were extracted either as a crude extract or purified on a Ni-NTA agarose resin as previously described [Gonda I. et al., The Plant Journal (2013) 61, 458-472].
To determine the terpene synthase catalytic activity, reaction mixtures containing 100 μl of protein extract or purified protein were incubated overnight at 30° C. with either 10 μM geranyl diphosphate (GPP) or farnesyl diphosphate (FPP), in a final volume of 200 μl using a buffer containing 50 mM bis-tris, pH 6.9, 1 mM DTT, 10% (v/v) glycerol, 0.1 mM of MnCl2 and 10 mM of MgCl2. The volatiles produced were extracted by solid-phase microextraction (SPME) according to the methodology previously described [Iijima Y. et al., Plant Physiol (2004) 136: 3724-3736]. As controls, reactions were carried out without the cofactors MnCl2 and MgCl2, or protein extracts were heat inactivated by incubation at 100° C. for 5 minutes, or a short peptide product of an empty pET100 vector was utilized.
For solid-phase microextraction (SPME) analysis, a 57298-U SPME fiber assembly Divinylbenzene/Carboxen/Polydimethylsiloxane (DVB/CAR/PDMS, Supelco) needle size 23 ga, StableFlex, was used with an autosampler and analyzed by GC-MS as previously described [Davidovich-Rikanati R. et al., Nature Biotech (2007) 25:899-901; Davidovich-Rikanati R. et al., Plant J (2008) 56:228-238]. The SPME fiber were adsorbed for 30 min. by automatic HS-SPME at 50° C. followed by injection of the fiber into a GC-MS injection port for 5 min. (splitless), for desorption of the volatiles. Chiral separation was conducted on a Restek Rt™-bDEXsm column (30 m length 0.25 mm i.d., 0.25 μm film thickness, 2,3-di-O-methyl-6-O-tert-butyl dimethylsilyl beta cyclodextrin added into 14% cyanopropylphenyl/86% dimethyl polysiloxane). Helium (0.8 ml min-1) was used as a carrier gas with splitless injection. The injector temperature was 250° C., and the detector temperature was 230° C. The following conditions were used: initial temperature 40° C. for 5 min., followed by a ramp of 2° C./min. to 110° C., and 10° C./min up to 230° C. (5 min.). A quadrupole mass detector with electron ionization at 70 eV was used to acquire the MS data in the range of 41 to 350 m/z. The identification of the volatiles was assigned by comparison spectral data with the W10N11 and HPCH2205 GC-MS libraries and with authentic standard when available.

B1: T-AG2575-1: Cannabis ABC-G transporter gene product, amino acid SEQ ID NO: 55 (protein)
chain: MEVGDLYKAGNSLRSSKGSSVWRGNNNNNNNKDEFFSKSRREDDIDDEEALTWAALEKLPTYDRLRKGILTTSKGKPTEVDVINLGSKERKDLLRRLVNVADEDNESFLLKLKQRIQTVGIELPTIEVRYENIKVEADVHVGSRALPSFINFCVNILEMLVSFLPILKSKKKHVTILDDVSGAIKPGRLTLLLGPPNSGKTTLLLTLAGKLASELKFSGRVTYNGHEMNEFIPQRTAAYISQHDVHIGEMTVRETLSFSARCQGVGTRYDMLAELSRREKEANITPDPDIDVFMKAASAEGQESSVITDYIIKILGLEGCADTMVGNEMLRGISGGQKKRVTTGEMLVGPAGALFMDEISTGLDSSTTFQIVNSLKQFAHIFEETIVISLLQPAPETYDLFDDIILLSDGQIVYQGPRENVLEFFELTGFKCPERKAIADFLQEVTSRKDQAQYWARSDQPYKFVTVNEFVEAFQSFHIGKKVVEHLSIPFDKTKSHPAALTTKPYGLNKMELLKACMSREFLLMKRNSFVHIFKIVQLGILGLISATIFLRTKMHHKTLQDGSIYLGALFFSTLMIMFNGLSEVPMTIVKLPVFYKQRDLQFFPAWAYALPSMIYKAPVAFIEVLVWMTITYYSIGFDPYFGRVVKLYVLFVIINQMASGLFRAIASIGRSMIIANTFGAFSLLLLFVLGGFVLSRDFIKGWWIWGYWISPLMYGQTGVVVNEFNGNKWKHVPPNSTETLGVQVLKARGFFTDSYWYWLGFAALSAYVVIFNFVYTLALTYLNPLEQRQAVSNENSESGDIQNDEEGEVIEMTQRPKNMGENQSKKKGMILPFEPHSICFDDVCYSVDMPQEMKGQGVVEDKLVLLKSVSGSFRPGVLTALMGVSGAGKTTLMDVLAGRKTGGYIEGDIRISGYPKKQETFARISGYCEQNDIHSPYVTVYESLLYSAWLRLPSEVDMDTRKMFIEEVMELVELVPLRQALVGLPGVNGLSTEQRKRLTIAVELVANPSIIFMDEPTSGLDARAAAIVMRTVRNTVDTGRTVVCTIHQPSIDIFEAFDELFLLKIGGEEIYVGPLGRHSCHLINYFEAIEGVSKIKEGYNPGTWMLEVSSSAQEMALGVDFANIYKNSDLYKRNKELIKELSTPAPGSKDLYFPTQFSRSLYTQCIACLWKQRQSYWRNPLYTAVRFMFTTFIALMFGTMFWDLGSKRSNKQDLTNALGSMYSAVLFIGVQNSSSVQPVVGVERTVFYREKAAGMFSAFPYTFGQVVVEIPYIICQAVVYCLIVYAMMGFEWTAVKFFWYLFFTFFSMLYFTFYGMMAVGITPNNHVASIISAAFYSIWNLFSGFIVPRTRIPIWWRWYYWGCPTAWTLYGLLVSQYGDVEDVMDAETGETVKQYLKSYFGYKHDFIGVVAMVNVFYGLLFGGIFALSIKVLNFQNR
modifications: ABC+PTR Transporter amino acid sequence (of the 12 identified gene products)
- inhibition of yeast growth in response to CBD, transporter-expressing yeast vs control yeast (yeast cells [1]): reduced inhibition of growth
- net uptake of CBD into yeast cells compared to control (empty vector) yeast (yeast cells [2]): reduced net uptake of CBD

B2: AG3403-2: Cannabis terpene synthase gene product, amino acid SEQ ID NO: 40 (protein)
chain: MHCITLKHQISPLLPNICSTTNFGVFFRPKLYTNYNIINNATKSRLSSACYPIQCAVVNSSNAIIDRRSANFEPSIWSFDYIQSLTSQYKGEPYTSRVKKLERDVKKILVEMENSLAQLELIDTLQRLGISYRFENEINSILNKKYVNINNPNYNLYAIALQFRLLRQHGYAVPQEIFNQLKDEIENIKKNINGNDIMGILALYEASFYEKKGESILKEARIFTTKCLKNYTIMISEQKKLLIDNDYDYDIEVVNHALELPLHRRTTRTEAKWFIDAYAKKQDMNPMLLELAKLNFNTVQSTHHEDLKHIFRWWRHTKLGEKLNFARDRLMECFLWNIGIRFESKFSYFRTKTAKLFELVTFIDDIYDVYGTLDELELFTKAVERWDVKMINELPEYMKMPYLVLHNTINDMVFEVLRDQEISINIQYLKKTWVDMCKSFLQEAKWYYSGYTPTLEEYIENGWISVGAPVILVHAYFFHANNNRTITNTKEIFECLEHGYYPAIIRHSAIILRFTNDLTTSSEELKRGDAPTSIQCYMQEKNVSEEEAREHIKFLINEAWKEMNNDVGLYPISLTEDATNFAKMGFFIYQHGDGHSSQDNQSKQKISSLIIEPIPLYT
modifications: Terpene Synthase Gene Amino acid sequence of the 45 identified gene products
- Monoterpenes produced with GPP [3]: beta-myrcene and geraniol

B3: 799-4: Cannabis terpene synthase gene product, amino acid SEQ ID NO: 33 (protein)
chain: MSNIQVLASSQLSDKIIARPTTNFHPSIWGDRFLHYNISEQDLVCKEERIEELIQVVKKEILSSNHDQLKLIDNLQRLGLSHHFESEIEKLLEHLSTTHHQNHHDLHDASLCFRLLRQHGFNVSSSIFEKFKDEKGNFKGSLITDVPGLLSLYEASHLSYVGESILDEALAFTTTHLKAIVANSKDHPLSHQISIALHRPLRKTIERLHARFYISIYEKDASHNKVLLELAKLDFNLLQCFHKKELSEIMRWWKEHEFAKKFPFARDRMVEQYFWILGVYYEPKYSRARKLLTKVIALASITDDIYDAYGTIDELELLTKAMQRWDITCMDKLEPEYLKTYYKAMLDSYEEFEKELKKEELYKLEYAKEEMKRIIGAYFEEARWLSEGYFPSLDEHLKVSYVSCGYVLLIATSYVGMYDIVTHETLNWLSKDPKIVSASTLLARFMDDIGSRKFEQKRNHIPSTVDCYMKQYEVSEEEAIKELNKRVDTHWKEINEDFIRPTVVPFPILVRVLNFTKTVDLLYKEGDDQYTNVGKVLKESIAALLIDSIPL
modifications: Terpene Synthase Gene Amino acid sequence of the 45 identified gene products
- Monoterpenes produced with GPP [3]: myrcene

From patent publication US20220256794A1, “TERPENE SYNTHASES AND TRANSPORTERS” (The State of Israel, Ministry of Agriculture & Rural …, priority 2019, published 2022)
